Test results: PMC4288360

Target: T1, Recombinant mouse BMP-9 (bone morphogenetic protein 9) (mouse) (UniProt Q9WV56)
T1 sequence: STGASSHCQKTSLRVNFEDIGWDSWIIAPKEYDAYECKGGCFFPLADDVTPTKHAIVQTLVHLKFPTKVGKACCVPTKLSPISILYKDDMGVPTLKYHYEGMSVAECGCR

B1: Activin receptor-like kinase-1 fusion protein (ALK1-Fc) (Fc fusion)
chain: DLAKPSKLVNCTCESPHCKRPFCQGSWCTVVLVREQGRHPQVYRGCGSLNQELCLGRPTEFLNHHCCYRSFCNHNVSLMLEATQTPSEEPEVDAHLP
With B1 the inhibition of BMP-9 (50 ng/ml)-induced alkaline phosphatase activity in murine VSMCs by ALK1-Fc (250 ng/ml and 1 μg/ml; value at 1 μg/ml), 4 days; blocks BMP-9 acting on ALK1 of the cells was 33%.
